Laboratory results as given in paper PMC5343425.

Biological target: Purified LDLR ectodomain (UniProt P01130)
Assay: SPR; BIAcore 3000; LDLR ectodomain immobilised on a CM5 chip by amine coupling (target 1000 RU); lipoprotein fractions injected at 5 nM apoB in HBS-N pH 7.4 (0.01 M HEPES, 0.15 M NaCl) with 0.5% BSA and 1 mM calcium chloride; 25 °C, 30 μl/min for 3 min; fitted with the two-state binding model (A + B ↔ AB ↔ AB*)

Chain of Purified LDLR ectodomain (P01130 22-788): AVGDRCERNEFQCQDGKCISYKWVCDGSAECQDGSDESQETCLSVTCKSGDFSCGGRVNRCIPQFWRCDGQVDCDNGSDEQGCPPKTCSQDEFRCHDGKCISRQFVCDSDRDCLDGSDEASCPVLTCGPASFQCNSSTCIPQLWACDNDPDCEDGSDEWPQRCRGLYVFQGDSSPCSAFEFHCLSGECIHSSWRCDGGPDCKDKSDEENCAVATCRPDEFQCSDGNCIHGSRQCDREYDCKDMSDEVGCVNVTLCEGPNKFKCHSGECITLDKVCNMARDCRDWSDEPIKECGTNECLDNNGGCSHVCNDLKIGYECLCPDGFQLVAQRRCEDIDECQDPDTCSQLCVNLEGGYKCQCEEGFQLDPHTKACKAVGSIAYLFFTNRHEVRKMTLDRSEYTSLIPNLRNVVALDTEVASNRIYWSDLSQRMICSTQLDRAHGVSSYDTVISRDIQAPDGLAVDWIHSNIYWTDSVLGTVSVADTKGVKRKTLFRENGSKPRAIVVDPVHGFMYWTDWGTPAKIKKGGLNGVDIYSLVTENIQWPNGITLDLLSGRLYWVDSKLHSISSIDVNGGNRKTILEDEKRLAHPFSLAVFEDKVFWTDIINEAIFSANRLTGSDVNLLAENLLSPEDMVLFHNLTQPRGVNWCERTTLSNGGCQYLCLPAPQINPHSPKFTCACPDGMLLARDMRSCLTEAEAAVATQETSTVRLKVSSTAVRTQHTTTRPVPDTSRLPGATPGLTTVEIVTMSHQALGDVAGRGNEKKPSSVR

K1 (two-state, step 1) | K2 (two-state, step 2) | Ka | ka1 (two-state, step 1) | ka2 (two-state, step 2) | kd1 (two-state, step 1) | kd2 (two-state, step 2) | Substance
1.4e+08 M⁻¹ | 1.7 | 5e+08 M⁻¹ | 1.45e+06 M⁻¹ s⁻¹ | 0.006 s⁻¹ | 0.0127 s⁻¹ | 0.00287 s⁻¹ | LDL (density 1.019-1.063 g/ml) isolated from fasting APOE3/E4 subjects (from UniProt P02649 19-317; P02649 19-317) (complex)
1.9e+08 M⁻¹ | 17.3 | 3.3e+09 M⁻¹ | 930000 M⁻¹ s⁻¹ | 0.017 s⁻¹ | 0.0052 s⁻¹ | 0.00097 s⁻¹ | VLDL1-rich TRL fraction (Sf 60-400) isolated from fasting plasma of APOE3/E4 subjects (from UniProt P02649 19-317; P02649 19-317) (complex)
